Molecular target: T1, ectodomain of human CD4 (26-396 amino acid residues), recombinant (human, UniProt P01730 26-396)
T1 construct: CD4, human, ectodomain, residues 26-396; Cloned into pfastbac1 with the GP64 signal peptide for secretion and a preScission protease site; also called recombinant CD4; CD4 protein
Assay: ELISA; 5 μg salivary gland protein coated overnight at 4°C on high binding 96-well plates, blocked with 1% BSA in PBST; 1 μg CD4 or DC-SIGN ectodomain added at 37°C for 1 h; detected with rabbit anti-CD4 or HRP anti-DC-SIGN monoclonal antibody, TMB, read at 450 nm
Conditions: both partners purified

B1: recombinant Ae. aegypti venom allergen 1 (AaVA-1) (natural protein, Aedes aegypti, UniProt A0A1S4EWW7 22-255, looked up)
chain: NYCDQSLCRRGPHVACNAPTQFGSACGQEPKFVKMDARMKNLLLKKHNELRAEIACGKHGFPQAARMPTLVWDDELAHIASFNARKCIFAHDKCRNTREFKFAGQNLAITAFAGYNFQAADRAENFTQEWFNEHKDCPKSYVDSYPMSHSGPQIGHFTQMVNDRAWKMGCSMVHYKNGRVIKYYLVCNYSMTNMIEEPIYTRGSAGSKCQTGQNPQYRGLCSPREKVRSESYRG
notes: Made with the GP64 signal peptide, so its own signal peptide was probably left out; also called AVAa-1
Question: Does B1 bind?
Answer: binds

From publication PMC9484696, “Identification of Aedes aegypti salivary gland proteins interacting with human immune receptor proteins” (PLoS Neglected Tropical Diseases, 2022)
